Assay: soluble on expression in E. coli; label from the status in PepcDB or PDB records

Sequence	soluble on expression in E. coli
MGSDKIHHHHHHMGKKYDVYGVGNALVDIEYEVSPELLQELKIDKGVMTLLDEDSQNHILENLKNLHCHKSCGGSAANTMVAISQLGGKAFYSCKVANDEFGDFYIEDLLNSQVDTNLKNGDRQSGITGKCLVLVTPDADRTMNTFLGITEKFSTQELVSSALADSEYIYIEGYLVTSPTAKEAAIKAREIAEKAGVKTAMSLSDYNMVKFFKDGLLDIIGPGLDLIFANESEALELADTQDFQVAVDKLKTLSKKFAITRGSKGSVVFDGQELIEIAAPQVKAIDTVGAGDMYAGAFLYGITQSMSYEEAGKLASTAASKIVTSYGPRLKTEELKALVSA	not soluble
MVIHIPVRESNYIEKILLPVMVYFIVNVKQNEWIYTILKEKFFYEEQEECHQILHMAHEILKGRRKGVAQDLTRNAFESYIKSSLNNWLCDPLSFSFSSYIRFRLRTYREMVAKLAEVAIDEYKMEQEYQMFIETLRQQVSSRKSRLSCVHLIFDESFIFYDDKGRRLKQEKLVQYIDEELLKQNDVYIDTKVIAPLLSISPKKIYLYTKEQDHNMIITLRNVFQERVQLHGLHDFERNVKNLKNKGNALDFLSFLEHHHHHH	soluble
GLDTIPTTYVDAGSVFGKTGDAEKVLNGGWNYLMETFNSYANPGYGAMLRANDAMGSDVVLNSKYGFRTHNEFSAIYGKGGTNTLSWLLAYRVINDCNGVLDNIDAAEGTQADRNRIKGQALALRGFLYLHLASCYSFAIDKDPDAVCAPIYTQSTDETIAAEGKPASSVSEVYAQSINDLEEALELIPETYVRDAKHKIDNEVVLGILSRACLYARQWEKAKTYSDKLLAKDNYLMTESEYKAGFNSVDNKEWIWGHAQTNDQSNASYQFHYLDTTTKGSYYYSFNVDPYFRDLFEDGDYRKEMLFWATDPGADVESAAYVWMRNSKFRFRDIENQLGDIVLMRVAEIYLINAEAKAHLNDPDAINKLNDLKTARGAKTIHTNLSQQDLLETIWLERRKELWGEGFSLIDIIRNQQTVVRNAYPEGPIDYIYTDENGQTHTLKKKTQGHRFFNFPDKSAFCPNSKYYLYRITDSEELANKNLYKDHPKLSIYTK	soluble
MAEFRIAQDVVARENDRRASALKEDYEALGANLARRGVDIEAVTAKVEKFFVAVPSWGVGTGGTRFARFPGTGEPRGIFDKLDDCAVIQQLTRATPNVSLHIPWDKADPKELKARGDALGLGFDAMNSNTFSDAPGQAHSYKYGSLSHTNAATRAQAVEHNLECIEIGKAIGSKALTVWIGDGSNFPGQSNFTRAFERYLSAMAEIYKGLPDDWKLFSEHKMYEPAFYSTVVQDWGTNYLIAQTLGPKAQCLVDLGHHAPNTNIEMIVARLIQFGKLGGFHFNDSKYGDDDLDAGAIEPYRLFLVFNELVDAEARGVKGFHPAHMIDQKHNVTDPIESLINSANEIRRAYAQALLVDRAALSGYQEDNDALMATETLKRAYRTDVEPILAEARRRTGGAVDPVATYRASGYRARVAAERPASVAGGGGIIGSHHHHHH	soluble
MTMDTAQLKSQIQQYLVESGNYELISNELKARLLQEGWVDKVKDLTKSEMNINESTNFTQILSTVEPKALEMVSDSTRETVLKQIREFLEEIVDTQ	soluble
TDQAAFDTNIVTLTRFVMEEGRKARGTGEMTQLLNSLCTAVKAISTAVRKAGIAHLWGIAGSTNVTGDQVKKLDVLSNDLVINVLKSSFATCVLVSEEDKNAIIVEPEKRGKYVVCFDPLDGSSNIDCLVSIGTIFGIYRKNSTDEPSEKDALQPGRNLVAAGYALYGSATMLVLAMVNGVNCFMLDPAIGEFILVDRDVKIKKKGSIYSINEGYAKEFDPAITEYIQRKKFPPDNSAPYGARYVGSMVADVHRTLVYGGIFMYPANKKSPKGKLRLLYECNPMAYVMEKAGGLATTGKEAVLDIVPTDIHQRAPIILGSPEDVTELLEIYQKHAAK	soluble
GPGSMRSAVNLGGAPRVPSQRLPAFEGVSPRIVARQVPAHRGEYVSLVLRPTSLNAQRNSLVASCVVTDESVEVMGLPADAEVAQVNEFVCYINPSSGELEYYQHGTYNDEYDVDVYRKLLELCPKFPALF	not soluble
MNRLVILARVSTSKQDTERQLSDLNEVCTRNQYDLVNTFTETVSGKYGITERTTLQAIIKMAELKQFDKLLVSEVSRIGRKTSEVLKFIEILTERKISIYIHNYGLETLDRNLNQNPLIGMMINFLSSFSDMERTLTISRVKSGLEEARRRNVILGRPKNSTKDIDIFIDENKRLFELIKKQLTIREIARLTYKSTTTVVKAIKLYKLHPEKFLSAT	not soluble
VIVYGDYNNDGNVDALDFAGLKKYIMAADHAYVKNLDVNLDNEVNSTDLAILKKYLLGMVSKLPSN	soluble
KASDQFIVYRASIAGPTMIAGYHWFNERGRDILIALPGLALVPQRFDLAKGVLRTFRHYYRHGLMPNVFPDADGEPLYNSIDAALWWVETLGLYLEATQDWEFLAEQFSVVQQIHKAFVGGTHYNIQVDAIDGLISWDARGVALTWMDVVIGANPVTPRHGKPVEINALWYSALCWLSRWAERLSSLELGDPVRLTKQAQRYALQAEKVKTSLQKFWNPQLGYLYDTIEPDDRRNFQIRPNAVLALSLHHCGFSAQQGSQILDLATISLLTPYGLRSLDPGDPEYKGRYEGNQEQRDRAYHQGTVWGWLIGPYIRAWQRFYPEQSLPFDWQPLLDHFLSGACLGSISEIFDGDAPHTPRGAIAQAWSVAEIIRHIQK	not soluble
MNQDLSQTFLAITRNSTDLEWLQGALAPLGQVVGADGSLDELLALVDVTFANLVFVGLDREHVVAQAALIEGALEAKPMLAIVALGDGMDNQLVLNAMRAGARDFVAYGSRSSEVAGLVRRLSKRLPAVTPNTQLGGLTVLYGAQGDGDGALLASHLALVVQKSGQQTLLLDLGLPRGDSLALLGLESSFHFGDALRHLRRLDATLIDSAFTSAEAGLRILAYASHDAPLEHTSAAELYMLLSALRQHFQHIVVNLVGQPDSEALRTFVSHCDKLLWCTDQNVLDCRRNLAVLNHWREKGMKLEHARLLVDRYLRTVAPDSETLGKTFGLEVIAVLAYSPEVRLNAKNQGVTLFELAPREALTQSLRTLGERLAKRSQGLPKPKAGWLNRIMGGRLEHHHHHH	not soluble
MGLFDGLLGNATQNNNETAEKELRDVLIPNEKVDMAFTLVRDLIVFTDKRLILVDKQGITGKKVDYKSIPYKSISRFSVETSGHFDLDAELKIWISSTELPSVSLQFRKDKDIVAIQQALAAAVLS	not soluble
MTEAIHCIGCGAIIQTENPHELGYTPKTAFEKGMETGEVYCQRCFRLRHYNDIQDVQLTDDDFLRLLNGLGTEDALIVNVVDIFDFNGSLIPGLHRFIGDNPVLLVGNKVDILPKSLKKPKMVQWMRERAHEAGLRPVDVLLTSGKKPQEMQELLDTIEKYREGRDVYVVGVTNVGKSTLINQIIQQTVGVQDVITTSQFPGTTLDKIEIPLDDGHFLIDTPGIIHRHQMAHYLGKKDLKIIAPQKEIKPKVYQLNAEQTLFLGGLARFDYVQGAKSSFIAYVSNDLKLHRTKTATADAFYEKHVGGLLQPPRADEVAEFPELVRFEFSVKEKTDIVFAGLGWITVTEPGVVAGWAPKGVDVLRRKALILEHHHHHH	not soluble
MAHHHHHHMSAMSSSDDAPPHQRLASEQSKRDSGAHVGAREHIHDAPTLSARARFLRELERYASDDDDYGGNGGAAVVGAGPMRQPNQANGAPQRRTAFPLVSATRAAAPSVGPSSSSDFFFGGEGGSHDEADDEDVGEDAVWSTASAASLARTLNGVPVTGSTSDIGTTGGSAAPSRVGLQLLHRMHALSTSGDRRSSGHDSAVHSAATRANVMIPQTSPTPTSSADFEVVHAYVPLSTGGFLSTANAAHDTMEGYQVRIGDVLSLRKPLSCTDPPPSSAVASAPASSPTTSTATPSIAALTLTTGSAAAGASATGSLVKDVAQKAMGHFKSAATFTSEEQKYGRKLTPDMVRLLFEVTRVDYQGRSIEALFLDGTRAKVSFFEVRPAGYVERKMYATWKADPSSRPVTIIHSNASSPTTSSAPNGAVMPSSVPSPALPPPPSVTAAAWWVIPRLLVRVTTEAAGDWYGKKCVVKAVQRSENRVRLAEWVEEGRSDGGESGSRSFHNCGKPTAATAETRELIGVDGLETVVPKKGGRAMVVLGSRRGEMCTVRNRVRGADGELTAVEVEISRTKEVMTLQAGELCALAR	soluble
MSCGYTGPINEQNKENIKRAIAMHAAARRTRMLQQLREGLQLYRLVDIMEKNKEVCRSHFVFEGGNDQVDSQYIVSHLDPKMSESGTLKHSKEMQILNNFQDFLMELEDGGPEDEEALCVSKVMQWLSGQAHVHLLLSERQAFKITVLFDHTCMERMPDHRICYPVDSAWTQTITFPTAHSTSLNQFKENMRIAVQQGAYFYRV	not soluble
